From publication PMC10042821, “Cryo-EM structure of human eIF5A-DHS complex reveals the molecular basis of hypusination-associated neurodegenerative disorders” (Nature Communications, 2023)
Numbering of substitutions follows the chain as printed.

Columns and labels:
Experiment in all cases: MST; His-tagged DHS variants labelled with RED-tris-NTA 2nd Generation, 8.32 nM; eIF5A titrated, sixteen dilutions 0.00175–57.5 μM; 50 mM Tris, 200 mM NaCl, 5 mM β-ME pH 8; Monolith NT.115, 40% excitation power, 60% MST power; no NAD or SPD
Conditions in all cases: both partners purified
[1] = target: T1, deoxyhypusine synthase I271A, His-tagged (human, UniProt P49366 1-369, I271A, RED-tris-NTA 2nd Generation dye on the His tag)
T1 construct: human deoxyhypusine synthase, Uniprot P49366, residues 1-369, site-directed mutant of the pET24d full-length construct; also called DHS I271A; source: E. coli, purified; not shown: 6xHis, N-terminal, kept
T1 sequence (looked up): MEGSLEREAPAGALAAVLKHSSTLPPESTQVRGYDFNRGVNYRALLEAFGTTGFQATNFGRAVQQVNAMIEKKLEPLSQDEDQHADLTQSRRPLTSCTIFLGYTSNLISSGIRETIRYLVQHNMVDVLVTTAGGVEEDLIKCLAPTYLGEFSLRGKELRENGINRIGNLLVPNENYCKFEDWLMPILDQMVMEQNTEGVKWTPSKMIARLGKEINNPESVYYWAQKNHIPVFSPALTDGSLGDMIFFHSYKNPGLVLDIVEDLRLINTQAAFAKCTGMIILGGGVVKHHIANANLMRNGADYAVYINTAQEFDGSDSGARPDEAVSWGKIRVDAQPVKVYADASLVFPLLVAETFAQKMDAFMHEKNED

[2] = target: T2, deoxyhypusine synthase, wild type, His-tagged (human, UniProt P49366 1-369, RED-tris-NTA 2nd Generation dye on the His tag)
T2 construct: human deoxyhypusine synthase, Uniprot P49366, residues 1-369, in pET24d with N-terminal 6xHis-tag and TEV site; also called DHS; DHS wt; source: E. coli, purified; not shown: 6xHis, N-terminal, kept
T2 sequence (looked up): T1 sequence (looked up) with A271I

[3] = target: T3, deoxyhypusine synthase Q83A, His-tagged (human, UniProt P49366 1-369, Q83A, RED-tris-NTA 2nd Generation dye on the His tag)
T3 construct: human deoxyhypusine synthase, Uniprot P49366, residues 1-369, site-directed mutant of the pET24d full-length construct; also called DHS Q83A; source: E. coli, purified; not shown: 6xHis, N-terminal, kept
T3 sequence (looked up): T1 sequence (looked up) with Q83A, A271I

[4] = target: T4, deoxyhypusine synthase M244A, His-tagged (human, UniProt P49366 1-369, M244A, RED-tris-NTA 2nd Generation dye on the His tag)
T4 construct: human deoxyhypusine synthase, Uniprot P49366, residues 1-369, site-directed mutant of the pET24d full-length construct; also called DHS M244A; source: E. coli, purified; not shown: 6xHis, N-terminal, kept
T4 sequence (looked up): T1 sequence (looked up) with M244A, A271I

B1: eukaryotic translation factor 5A (eIF5A-1), residues 15-151 (domain or fragment)
chain: not shown
notes: human eIF5A1, residues 15-151, from pET28-MHL (Addgene); The purification protocol removes the tag with TEV; source: E. coli, purified (HisTrap, TEV cleavage, reverse HisTrap, SEC); not shown: His tag, N-terminal, cleaved
Kd [1]: 56 ± 16 nM | Kd [2]: 40 ± 9 nM | Kd [3]: > 5000 nM | Kd [4]: > 5000 nM
